Values quoted from earlier work as cited in PMC2375062.
pKd: −log10 of the molar value.

Target: uPA (Homo sapiens) (UniProt P00749)

pKd: 7.30
Substance: glu-plasminogen (from UniProt P00747)
